In this assay the target is recombinant human cartilage oligomeric matrix protein (COMP) (human) (UniProt P49747). Kind of assay: atomic force microscopy.

Sequence of recombinant human cartilage oligomeric matrix protein (COMP), P49747 21-757 (natural protein; other documents disagree on this pair) (P49747 21-757): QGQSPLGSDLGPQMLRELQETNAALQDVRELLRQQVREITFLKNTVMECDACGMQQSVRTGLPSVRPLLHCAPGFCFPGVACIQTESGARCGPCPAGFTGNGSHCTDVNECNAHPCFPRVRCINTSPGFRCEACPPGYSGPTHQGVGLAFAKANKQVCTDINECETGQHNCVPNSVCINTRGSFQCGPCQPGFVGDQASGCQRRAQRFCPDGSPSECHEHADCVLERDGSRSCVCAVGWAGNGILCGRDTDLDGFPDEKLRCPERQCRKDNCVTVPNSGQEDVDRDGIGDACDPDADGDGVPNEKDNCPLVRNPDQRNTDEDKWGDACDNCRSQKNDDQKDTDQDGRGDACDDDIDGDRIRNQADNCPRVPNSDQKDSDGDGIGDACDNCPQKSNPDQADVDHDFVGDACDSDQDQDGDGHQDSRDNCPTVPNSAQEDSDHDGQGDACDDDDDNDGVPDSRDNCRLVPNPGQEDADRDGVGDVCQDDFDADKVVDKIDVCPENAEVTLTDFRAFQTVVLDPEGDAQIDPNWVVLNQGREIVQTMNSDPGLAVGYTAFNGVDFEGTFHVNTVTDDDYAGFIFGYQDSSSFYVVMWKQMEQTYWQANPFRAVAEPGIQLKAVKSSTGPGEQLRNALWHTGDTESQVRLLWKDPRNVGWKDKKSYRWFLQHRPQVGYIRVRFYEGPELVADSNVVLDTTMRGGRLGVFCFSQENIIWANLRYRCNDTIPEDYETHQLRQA

As for “recombinant human cartilage oligomeric matrix protein (COMP), P49747 21-757 (natural protein; other documents disagree on this pair)”, the stoichiometry N was 5.

A word on the stoichiometry N: it is a count of units in the complex or per binding partner.
